Data taken from the supplement of paper PMC9732359.
± gives the uncertainty stated by the source.

Assay: protein stability index of a GFP-peptide fusion (yeast GPS) (PSI 1-4); higher = more stable; sorted into four equal gates, so the index is relative within each strain
Outline: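 Yeast carrying a pooled library were grown to mid-log phase in leucine-free medium. Each library plasmid expresses Cherry and has a tiled 17-residue yeast protein peptide fused downstream of GFP. Cells were sorted into four equal gates by GFP/Cherry ratio, and plasmids from each gate were PCR-amplified, Illumina-sequenced and assigned to strains by barcode. Summing, across gates, the read frequency times the gate number gave each peptide's protein stability index.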

Sequence | protein stability index (doa10∆) | protein stability index (pdr5∆) | protein stability index (san1∆) | protein stability index (ubr1∆)
IVDFTLPPPPPPPGLDE [PRP8] | 3.15 ± 0.05 | 3.1 ± 0.048 | 3.2 ± 0.038 | 3.14 ± 0.039
IVGVLQDDADPMVSVMK [RPT2] | 1.99 ± 0.057 | 2.31 ± 0.057 | 2.49 ± 0.11 | 2.26 ± 0.056
IVHDDPASDDILDNINH [ITC1] | 2.98 ± 0.072 | 3.02 ± 0.062 | 3.04 ± 0.09 | 3.25 ± 0.058
IVKGNIIDEIKCIPKKG [POP4] | 1.79 ± 0.05 | 1.9 ± 0.05 | 2.29 ± 0.06 | 2.09 ± 0.045
IVLLDDEGKEIPATIFD [TAF14] | 2.82 ± 0.06 | 3.07 ± 0.048 | 3.04 ± 0.035 | 3.06 ± 0.05
IVLSDQTQEFFLSSFDD [YJL039C/NUP192] | 2.91 ± 0.12 | 2.89 ± 0.093 | 2.92 ± 0.057 | 3.25 ± 0.13
IVMVWLKENTYVMERPK [YDL116W/NUP84] | 1.46 ± 0.064 | 1.81 ± 0.06 | 1.43 ± 0.14 | 1.4 ± 0.056
IVNHEQDLPKINDKRAN [SRB4] | 3.28 ± 0.19 | 3.21 ± 0.11 | 2.96 ± 0.098 | 3.08 ± 0.08
IVPDLIINPHAIPSRMT [RPB2] | 1.81 ± 0.048 | 2 ± 0.042 | 1.75 ± 0.068 | 2.16 ± 0.047
IVQFTYGGDGLDPLEME [RPO31] | – | 3.09 ± 0.2 | 2.55 ± 0.27 | –
IVWRFISENTFPNGFKN [RPC34] | 1.84 ± 0.06 | 2.05 ± 0.042 | 2.06 ± 0.077 | 2.33 ± 0.046
IWLRKTSQMDLARDTPS [RRP4] | 1.61 ± 0.041 | 1.98 ± 0.051 | 1.54 ± 0.097 | 1.5 ± 0.044
IWMRGHGTYFLDNMTYS [RRP4] | 2.45 ± 0.06 | 2.38 ± 0.051 | 2.31 ± 0.082 | 2.19 ± 0.054
IYDFPGTPEATKGMITN [NUT2] | 2.54 ± 0.11 | 2.54 ± 0.11 | 2.98 ± 0.15 | 3.3 ± 0.086
IYSSDAQGDPNLEPLIA [NUT1] | 3.36 ± 0.14 | 3.12 ± 0.096 | 3.04 ± 0.065 | 3.35 ± 0.1
IYVHVRRSTPFSKIAEY [ESC2] | 2.16 ± 0.053 | 2.33 ± 0.049 | 2.52 ± 0.05 | 2.52 ± 0.047
KAAISFGAKPEEQKSSD [YJL041W/NSP1] | 3.12 ± 0.13 | 2.94 ± 0.2 | 3.5 ± 0.17 | 3.1 ± 0.12
KAEVTQLSNGIVVATEH [COR1] | 2.58 ± 0.17 | 3.15 ± 0.11 | 3.18 ± 0.18 | 2.96 ± 0.11
KAFEERHQAGKNQWFFS [RPL27A] | 2.87 ± 0.097 | 3.14 ± 0.11 | 2.65 ± 0.11 | 3.03 ± 0.055

Sequence | protein stability index (doa10∆) | protein stability index (pdr5∆) | protein stability index (san1∆) | protein stability index (ubr1∆)
KAFKNNSSKYYINEKES [SMC4] | 2.54 ± 0.12 | 2.42 ± 0.07 | 2.27 ± 0.083 | 1.72 ± 0.064
KAGKVAVVVRGRYAGKK [RPL27A] | 2.19 ± 0.083 | 2.17 ± 0.053 | 2.19 ± 0.097 | 1.78 ± 0.086
KAIFPNTVDGDLLKLVH [FAS1] | 2.19 ± 0.17 | 3.06 ± 0.14 | 2.22 ± 0.14 | 1.92 ± 0.05
KAIRGMVSHKTARGKAA [RPL16B] | 1.94 ± 0.056 | 2.01 ± 0.057 | 2.14 ± 0.087 | 2.62 ± 0.039
KAKERLQALKANDEEAY [SNF2] | 1.81 ± 0.14 | 2.51 ± 0.15 | 2.55 ± 0.067 | 1.77 ± 0.045
KAKNPLTHSTPKNFGIG [RPL8B] | 3.31 ± 0.13 | 3.35 ± 0.12 | 3.14 ± 0.074 | 3.08 ± 0.05
KAKSHFTNIISRNKALE [YJL039C/NUP192] | 2.66 ± 0.079 | 2.01 ± 0.053 | 2.39 ± 0.13 | 2.68 ± 0.075
KALAIFVPVPSLAGFHK [RPS7A] | 2.29 ± 0.051 | 1.93 ± 0.04 | 1.77 ± 0.069 | 1.85 ± 0.039
KAPNAVVITFEKEDHTL [RPB11] | 1.26 ± 0.077 | 2.7 ± 0.12 | 2.19 ± 0.091 | 1.97 ± 0.076
KASTYGELVLDIEVPDV [SNF12] | 2.61 ± 0.058 | 2.28 ± 0.051 | 2.13 ± 0.075 | 1.87 ± 0.045
KCKTRAQLTLKRCKHFE [RPL42A] | 2.65 ± 0.088 | 2.58 ± 0.085 | 2.85 ± 0.064 | 2.68 ± 0.061
KCVVIHNGSHRTVAGFS [ARP7] | 2.67 ± 0.051 | 2.74 ± 0.048 | 2.54 ± 0.051 | 2.67 ± 0.035
KDAVDYSKIPNILSNKP [RRP6] | 1.51 ± 0.096 | 1.97 ± 0.093 | 1.58 ± 0.21 | 1.58 ± 0.049
KDEIVLSGNSVEDVSQN [RPL9A] | – | 3.52 ± 0.26 | – | –
KDFTNKNLIQLISLKLL [SRB8] | 1.28 ± 0.042 | 1.49 ± 0.035 | 1.66 ± 0.067 | 1.91 ± 0.032
KDGRIRIFKITEKLSPL [YGL100W/SEH1] | 2.84 ± 0.079 | 2.85 ± 0.09 | 2.57 ± 0.08 | 2.79 ± 0.045
KDKLREFIPHSTEYMMQ [RPN6] | 3.46 ± 0.11 | 3.22 ± 0.11 | 2.83 ± 0.075 | 2.63 ± 0.087
KDLETLYNKIWTEASSS [ECM29] | 3.24 ± 0.2 | 2.84 ± 0.14 | 2.71 ± 0.091 | 2.51 ± 0.083
KDLVEIKKEEGKIDEAA [RPN5] | – | – | – | 3.62 ± 0.22

Sequence | protein stability index (doa10∆) | protein stability index (pdr5∆) | protein stability index (san1∆) | protein stability index (ubr1∆)
KDQLPDLESMGLTQLYK [MED7] | 2.85 ± 0.07 | 3.08 ± 0.071 | 2.87 ± 0.077 | 3.13 ± 0.069
KDRISHEVVQDDSFSLL [PCI8] | 3.19 ± 0.082 | 3.46 ± 0.071 | 3.19 ± 0.056 | 3.05 ± 0.075
KDSNKDVVVEGLRRARY [RPL10] | 3.26 ± 0.097 | 3.34 ± 0.071 | 3.38 ± 0.072 | 3.38 ± 0.058
KDSSLNYSSESYRNAFT [YJL039C/NUP192] | 2.89 ± 0.06 | 2.32 ± 0.064 | 2.02 ± 0.069 | 2.85 ± 0.047
KEDHPLEFYKDKFFNEV [SIR3] | 3.21 ± 0.086 | 3.2 ± 0.05 | 3.34 ± 0.055 | 3.43 ± 0.084
KEILDNILPFLWGPHGL [ECM29] | 2.67 ± 0.24 | 3.09 ± 0.24 | – | 3.37 ± 0.17
KEIYYTPDPSELAAKEE [FAS2] | 2.631 ± 0.023 | 2.748 ± 0.023 | 2.601 ± 0.024 | 2.531 ± 0.017
KEKEKEREEAEKKRAEQ [MED2] | – | – | 2.75 ± 0.28 | –
KEKIKNNRQLPYLVANV [RPT5] | 2.78 ± 0.1 | 3.1 ± 0.095 | 3.11 ± 0.096 | 2.64 ± 0.081
KELAELKVQKLSRPSLP [RPL35A] | 2.56 ± 0.045 | 2.92 ± 0.052 | 2.5 ± 0.061 | 2.74 ± 0.048
KELENNLERLRSDLQSK [YIL149C/MLP2] | 3.17 ± 0.062 | 3.3 ± 0.094 | 3.05 ± 0.068 | 3.2 ± 0.053
KELESIDVLLEQTTGGN [RPB4] | – | – | – | 3.22 ± 0.26
KERIVRAFLIEEQKIVK [RPL34B] | – | – | – | 2.74 ± 0.12
KERLTKEAAAIAEGKSK [RPL8B] | 2.19 ± 0.05 | 2.33 ± 0.056 | 2.02 ± 0.073 | 2.38 ± 0.033
KETIARVTGGMKVKADR [RPS14A] | 3.29 ± 0.11 | 3.13 ± 0.12 | 3.31 ± 0.062 | 3.27 ± 0.073
KETQQYELEFDTPTSGK [BRR2] | 2.99 ± 0.05 | 2.98 ± 0.055 | 3.05 ± 0.041 | 3.08 ± 0.045
KEVLPDLQNLNLNTDKL [YJL039C/NUP192] | 3.38 ± 0.1 | 2.94 ± 0.098 | 3.25 ± 0.097 | 2.64 ± 0.085
KFDSRIRGILMASGSTT [PRP8] | 2.44 ± 0.084 | 2.18 ± 0.11 | 2.06 ± 0.12 | 2.19 ± 0.13
KFENDELAESTTTKIID [LRP1] | 2.04 ± 0.13 | 2.47 ± 0.12 | 2.23 ± 0.086 | 2.27 ± 0.053
